Paper PMC7427095 (2020)
Several values for one entry are separate records, joined by “and”; a condition that tells them apart may be missing. Equal values may be shown once.

Experiments:
[1] = target: HA4-AsLOV2 (SS58 insertion, V416L mutant) (Avena sativa); experiment: BLI; Octet RED96e; 6x-histidine tagged OptoMB variant loaded on Ni-NTA sensors, YFP-SH2 in solution at several concentrations; Buffer A (Tris 50 mM pH 8.0, NaCl 150 mM); illumination: 450 nm light (blue LED panel above the plate, lid open); binding and unbinding curves fitted together to a mass-action model; single experiments
[2] = target: His6-HA4-AsLOV2 (SS58 insertion, C450V mutant) (Avena sativa); experiment: as above
[3] = target: HA4-AsLOV2 (SS58 insertion, V416L mutant) (Avena sativa); experiment: BLI; Octet RED96e; 6x-histidine tagged OptoMB variant loaded on Ni-NTA sensors, YFP-SH2 in solution at several concentrations; Buffer A (Tris 50 mM pH 8.0, NaCl 150 mM); illumination: ambient (ambient laboratory light and the instrument's internal light sufficed to trigger the lit conformation of the light-sensitive constructs); binding and unbinding curves fitted together to a mass-action model; single experiments
[4] = target: His6-HA4-AsLOV2 (SS58 insertion): αSH2-OptoMB (Avena sativa); experiment: as above
[5] = target: His6-HA4-AsLOV2 (SS58 insertion, C450V mutant) (Avena sativa); experiment: as above
[6] = target: His6-SUMO-HA4-AsLOV2 (SS58 insertion, V416I, G528A, N538E mutant) (Avena sativa); experiment: as above
[7] = target: T1, OptoMB_(C450V), His-tagged (Avena sativa, UniProt O49003 408-543, C450V); experiment: BLI; dark
[8] = target: T1, OptoMB_(C450V), His-tagged; experiment: BLI; dark; remark: listed apart in the source
[9] = target: T2, OptoMB_(V416L), His-tagged (Avena sativa, UniProt O49003 408-543, V416L); experiment: BLI; light
[10] = target: T2, OptoMB_(V416L), His-tagged; experiment: BLI; light; remark: listed apart in the source
[11] = target: Monobody HA4 (6x-histidine tagged); experiment: BLI; Octet RED96e; His-tagged HA4 loaded on Ni-NTA sensors, YFP-SH2 in solution; Buffer A (Tris 50 mM pH 8.0, NaCl 150 mM); state of illumination not given ('–')
[12] = target: T1, OptoMB_(C450V), His-tagged; experiment: BLI; DARK conformation: Octet RED96e, no external light source; His-tagged OptoMB_(C450V) loaded on Ni-NTA sensors, YFP-SH2 in solution; Buffer A (Tris 50 mM pH 8.0, NaCl 150 mM)
[13] = target: T2, OptoMB_(V416L), His-tagged; experiment: BLI; LIGHT conformation: Octet RED96e with the lid open and a blue LED panel above the plate (for the V416I-G528A-N538E variant pre-illumination); His-tagged OptoMB variants loaded on Ni-NTA sensors, YFP-SH2 in solution; Buffer A (Tris 50 mM pH 8.0, NaCl 150 mM)
[14] = target: αSH2 OptoMonobody (OptoMB), His-tagged, wild-type AsLOV2 (Avena sativa) (UniProt O49003); experiment: as above

B1: YFP-SH2 (fusion of yellow fluorescent protein and the SH2 domain of human Abl kinase), purified (domain or fragment)
chain: SLEKHSWYHGPVSRNAAEYLLSSGINGSFLVRESESSPGQRSISLRYEGRVYHYRINTASDGKLYVSSESRFNTLAELVHHHSTVADGLITTLHYPAPKRNKPTVYGVSPNY
- Kd [1]: 60 µM and 42 µM
- koff [1]: 0.2 s⁻¹ and 0.24 s⁻¹
- kon [1]: 3300 M⁻¹ s⁻¹ and 5800 M⁻¹ s⁻¹
- Kd [2]: 0.27 µM
- koff [2]: 0.013 s⁻¹
- kon [2]: 48000 M⁻¹ s⁻¹
- Kd [3]: 87 µM
- koff [3]: 0.25 s⁻¹
- kon [3]: 2900 M⁻¹ s⁻¹
- Kd [4]: > 100 µM
- kon [4]: < 1000 M⁻¹ s⁻¹
- Kd [5]: 0.06 µM and 0.23 µM
- koff [5]: 0.006 s⁻¹ and 0.013 s⁻¹
- kon [5]: 110000 M⁻¹ s⁻¹ and 56000 M⁻¹ s⁻¹
- Kd [6]: > 100 µM
- kon [6]: < 1000 M⁻¹ s⁻¹

B2: YFP-SH2, purified (fusion of YFP and the SH2 domain of human Abl kinase) (domain or fragment)
chain: B1 chain
- Kd [7]: 0.0569 µM
- koff [8]: 0.00599 s⁻¹
- Kd [9]: 86.7 µM
- koff [10]: 0.254 s⁻¹
- Kd [11]: 0.23 µM
- koff [11]: 0.0145 s⁻¹
- kon [11]: 63100 M⁻¹ s⁻¹
- Kd [12]: 0.19 µM
- koff [12]: 0.01 s⁻¹
- kon [12]: 71000 M⁻¹ s⁻¹
- Kd [13]: 63 µM
- koff [13]: 0.23 s⁻¹
- kon [13]: 4000 M⁻¹ s⁻¹
- Kd [14]: > 100 µM
- kon [14]: < 1000 M⁻¹ s⁻¹
